In test [1] the target is T1, F-actin from chicken breast muscle (chicken (endogenous in breast muscle), UniProt P68139 1-377). The test is described as follows: cell-based or functional assay.
Test [2] addresses T1, F-actin from chicken breast muscle. The test can be described thus: co-sedimentation.

The values below come from publication PMC2114910 (The Journal of Cell Biology, 1987).

B1: 110-kD protein-calmodulin complex of the intestinal microvillus (complex)
chain 1: MEATTSLLDAAAVGDLVMLDPLSEESLLRTLQERFSRGEIYTYIGEVVISVNPYKPLPIYTPEKVEEYHNCNFFAVKPHIYAIADDAYRSLRDRDRDQCILITGESGAGKTEASKLVMSYVAAVSSKGEEVDKVKEQLLQSNPVLEAFGNAKTIRNDNSSRFGKYMDVEFDFKGDPLGGVISNYLLEKSRIVRHVKGERNFHIFYQLLAGGSAQLLQQLKLRPDCSHYGYLNHEKSVLPGMDDAANFRAMQDAMAIIGFAPAEVTALLEVTAVVLKLGNVKLSSCFQASGMEASSITEPRELQEISQLIGLDPSTLEQALCSRTVKVRDESVLTALSVSQGYYGRDALAKNIYSRLFDWLVNRINTSIQVKPGKQRKVMGVLDIYGFEIFQDNGFEQFIINYCNEKLQQIFILMTLKEEQEEYVREGIQWTPVEFFDNSIICDLIENSKVGILAMLDEECLRPGTVNEDTFITKLNQIFASHKRYESKETLNAKHVTDVSLPLRCFRIHHYAGKVTYNVTGFIEKNNDLLFRDLSQAMWAARHTLLRSLFPEGDPQRPSLKLPPTTGSQFKASVATLMKNLYSKNPNYIRCIKPNDTKTAMLFTPDLVLAQVRYLGLMENVRVRRAGYAFRQLYQPFLERYKMLSRKTWPRWTGGDREGAEVLLAELKFPPEELAYGHTKIFIRSPRTLFDLEKRRQQRVAELATLIQKMFRGWCCRKRYQLMRKSQILISAWFRGHMQRNRYKQMKRSVLLLQAYARGWKTRRMYRRYFRSDACTRLSNFIYRRMVQKYLMGLQKNLPPMAVLDRTWPPAPYKFLSDANQELKSIFYRWKCKKYREQLTPQQRAMLQAKLCASELFKDKKALYAQSLQQPFRGEYLGLTQNRKYQKLQAVAKDKLVMAEAVQKVNRANGKTVPRLLLLTTEHLVLADPKAAQPKMVLSLCDIQGASVSRFSDGLLALHLKETSTAGGKGDLLLVSPHLIELVTRLHQTLMDATAQALPLSIADQFSTRFPKGDVAVTVVESAKGGGDVPVCKKRGSHKMEILVH
chain 2: […]
Consider B1, for which, in test [1], the “actin activation of the MgATPase activity of 110K-CM, F-actin 0.1 to 60 uM, 35C” value is 2.5 to 3.5 fold. Further, the “mass ratio of 110K-CM to actin at apparent saturation” value in test [2] is ~20 110K-CM:actin by mass.
